Test results published in patent US20240262791A1, “B[…] […] AMINO ACIDS” (priority 2021, published 2024).

Columns and labels:
[1] = target: Spike protein on authentic SARS-CoV-2 Nanoluciferase virus (USA/WA1-2020) (SARS-CoV-2) (UniProt P0DTC2); assay: cell-based or functional assay
[2] = target: Spike protein on SARS-CoV-2 GFP Reporter Virus Particles (pseudotyped lentivirus), wild-type strain (SARS-CoV-2) (UniProt P0DTC2); assay: cell-based or functional assay
[3] = target: SARS-CoV-2 (2019-nCoV) Spike RBD-mFc Recombinant Protein (SARS-CoV-2; mouse) (UniProt P0DTC2); assay: time course 0 to 16 h at 37 °C, Western blot

## mNb6 dimer with one FFY at position 108 of the N-terminal mNb6 (VHH)
[1]
  IC50, neutralizing authentic SARS-CoV-2 virus: 0.28 nM
[2]
  IC50, neutralizing pseudovirus: 1.9 nM

## ACE2-34FSY (soluble human ACE2, amino acids 1 to 740, FSY at H34, C-terminal His x6) (from UniProt Q9BYF1 18-740) (receptor)
[3]
  apparent second-order rate constant of covalent crosslinking: 123 M⁻¹ s⁻¹
